# The DeepSol protein solubility set
# Experiment: soluble on expression in E. coli; label from the status in PepcDB or PDB records
row,Sequence,soluble on expression in E. coli
1,NKSDMNHFMQVLRYLDPIHYLKATNDNGFPMSRMYSNQTVTIGGTITQPLPFKPDGENNVKLQRVVAKLDVNIVEGVENLQKIELCNANVHYRLVPNQSEPIQFYGPVELRRVGTTNQWLGYMPEAIVESTKWWGNTGNAENKPINFFRLTTRGGLVYDVPIITHEGAIPGGQYLPFAKGLLADKPSYTVYRNRHYIYRIKTLPDKIEVKYSICDWNIVTNDTYMGYGYNVGVDEQGNVTITNTMQNCDPHVVRLVAKNGAYFGSQPTDTSVEFAELANGASQTFKVNKDAVAVGSAYLEVYYNPDPNATGVVPDKVFIKK,not soluble
2,MSLRPRMIDWLQARNIGVAVSQSYLAPVVDRAARQEQYRRMVQRSEPLISAYMGVRLPQPIDRIYVFDRAEWIEANLAAFQSLFAPLEELYDEVSARQGMVGILIGQLNSQLIGMQVGALIGFLARRVLGQYDLGLLSPDPDLRGALYFVEPNIARICAQLGLNGDDFRMWIALHETTHVFEFEAFPWVRAYFQDLLRQFIGRVNDQAAMLSVGIVRLIERLLQGQPIDHHWIELMLTPEQREIFTRMQALMSVVEGYSNHIMNAIGAQLLPSYPSIEARVRQRQLRRPLIEEAFNRITGMDLKLAQYQQGEAFINAVVAACGADFANRIWERPENLPTMDEIRAPHRWIARMSGEGHHHHHH,soluble
3,MARTVDLELEAQIDILRDNNKKYENILKLAQTLSTQLFQMVHTQKQLGDAFADLSLKSLELHEKFGYNADTQKLLAKNGETLLGAINFFIASVNTLVNKTIEDTLMTVKQYENARVEYDAYRTDLEELNLGPRDANTLPKIEQSQHLFQIHKEKYDKMRSDVSVKLKFLEENKVKVLRNQLVLFHSAVAAYFAGNQKQLELTLKQFHVRLKTPGVDAPSWLEEQ,soluble
4,MAHHHHHHMPGASDRGTAYVSCRIHCLPACFSRAVVAVCKLTSPAPGIPPLVSLCRYGLPGYSAQEGEAFSAAASGLHPRHQLPFVLSRVAASKAIASLSPDKRAACPGEEDGPAVVFTDRREAAPTLHGCCLSIAHEDSAAASVAWSVPSPDSSSFKDYHAAPERLYMEAQLVCSHSTLPDATATSFAYAIDVVNVAEVHRVRSRFPHFGQRWMPQCTTTASADDVGRALTCVQKQHQECVAAVGAPGGSHGGEGVSACQAACRRDEWWKHLVTPYVTEADAYAAVVLAQHWGVRECAVKLVGIPGRSFAYECVRALPPRGGAVVTESTPFTASFLMSHTLYSAEVHGAEAATLAQQRLHPLLYLYTWTEWVPLNSTVDLPYVVVLACAPCRSDAR,not soluble
5,SFARGLKRKCVGHEEDVEGALAGLKTVSSYSLQRQSLLDMSLVKLQLCHMLVEPNLCRSVLIANTVRQIQEEMTQDGTWRTVAPQAAERAPLDRLVSTEILCRAAWGQEGAHPAPGLGDGHTQGPVSDLCPVTSAQAPRHLQSSAWEMDGPRENRGSFHKSLDQIFETLETKNPSCMEELFSDVDSPYYDLDTVLTGMMGGARPGPCEGLEGLAPATPGPSSSCKSDLGELDHVVEILVET,not soluble
6,SLDGELDTQPLIEQLWQAGKRVYLPVLHPFSPGNLLFLHYHPQSALVTNRLNIREPRLDVRDVLPLAKLDVLVTPLVAFDEGGQRLGMGGGFYDRTLQNWQQHKILPVGYAHDCQLVEKLPVEEWDIPLPAVVTPSKIWEW,soluble
7,MGSDKIHHHHHHMKRLDGIPESMLIPLIARAKEYEYEKPIIKDALSKKIFDGLDDIYKNVTCDDMSQIGISIRSVIIDSVTKRLIKDNKNLIVINIGCGLDTRFQRFNNEKISWIDLDVPESIEIRKTFFKETDSYKMIAKSMLDYSWIEDVINYKFFNSKSNILFIFEGVLMYFDESVMTKLLHTIIKKFGDHNLTFAIEFCSKTIANNTKRHKSVSKLSSQPVFKYGYNDLNELDKVLPNKMKVINEYNYFDYHKKRWGLFGYCRYIPYLKKRLNNKIVIMEYKPAKLITHN,not soluble
8,MSLTEKTDQTLMLIDGHSMAFRAFFALPAENFSTSGGQATNAVYGFLSMLSTLLKDEQPTHVAVAFDVGRKTFRTDMFPAYKAQREATPPEFKGQVEILKEVLSTLGITTIEKIDFEADDVIATLSVAAKPLGFKTLIVTGDRDSFQLVNDTTTVLYPMKGVSVLHRFTPEAVEEKYGLTPRQYPEFAALRGDPSDNLPNIPGVGEKTATKWIAQYETLDNLLDHADEIKGKVGASLRERIEQVRMNRKLTEMVKDLELPLGPDDFEMKPVQVAEVAAKFDDLEFGTNLRERVLAVVKAEGSAAPVEEVEAEQVVVDTQSLAQWLPARAGQALALALAGVAKPAAGDTYALAIADTKRHAVLVDVADISAEDEKALATWLASEDPKMLHGAKAAYHMLAGRGFELHGVVHDTAIAAYLLRPGQRTYELADVYQRHLQRQLSTNDNGGQLTLLDAADDQSLVDDVIAILELSEELTKQLQEIQAFELYHDLEIPLSGILARMEAIGEGHHHHHH,soluble
9,MGSDKIHHHHHHMSQILQNFIKQAQYNPLHSLEEWEEDLLNRYPDPHSIVKEGKTTQEYRNYETPTRETVKEFYRLNHINQTYNFVLEKEKNFLKFDKKEMSVWDAVEFLNQLVDDSDPDTEMDQLQHLLQTSEAIRADGHPDWMVLTGFFHDMGKVLCLFGEPQWATVGDTYPVGCAFSDKIVFSEFFQENPDYNNPNYNTKYGIYEPNCGLINVHISWGHDEYFYQMMKNYLPEPALYMLRYHSFYPQHRENAYKHLMDNHDREMFKWVKLFNPYDLYSKNPTPPDWQKLRPYYEDLVAKYLPATLKF,not soluble
10,GSKNCPDPELCRQSFRRFCYQEVSGPQEALSQLRQLCRQWLQPELHTKEQILELLVMEQFLTILPEEIQARVRHRCLMSSKEIVTLVEDFHRASKKPK,soluble
11,MTEPKEERRERRMSSPIMPENMSDFDLIVGEIEAENGAEGSFQRAAECFKLIEDRVSEDPDLSEIMENIRMNQGCEVSGMSTGLSSTATTVSSKMASQWISHMKRSFKRRAICLSEEQQSAMRKMVTEELYTQHGPADLAVRDILLLYSRGLEAHHDGRYREMFERLRPCIPYFNTNVLVWIRISEALIYEYYEETWEFNDIYDRLFEKQPHHYMPSVRRRCNEMRPRHPDMTLRFAETATLMCFALAKQSSREPVHYAAAALHGFMLLKLRKYSEAIEAVNFAVERYDRAGEWQDDLAILLTYKAEGMIGIGRYNRAIEYALRVMNAAKCARARQRATMLVVMAYMRKRNYLKAHEYVIKLLKEGKLDEVMLENVALLGLNLAHLMGNMKLFKRFESMLQRIVY,not soluble
12,MFLYTETDQNLQACIDACNHCYRTCLRMAMNHCLEAGGKHVEADHLRLMMNCAEICQTSLNFMLSGSRFSPKVCGVCAEICDACAKSCEQLDGMEECVQTCRQCAEHCRKMAALEHHHHHH,soluble
13,QYVKPELPDVATLKDVELQTPMQVFSQDGKLIAQFGEKRRIPVTYDEIPQDLIHALIATEDSRFYEHPGIDPIGITRAAVVVALSGSAKQGASTITQQLARNFFLSNEKKLMRKIKEIFIAIHIEQLLSKQEIMELYVNKIFLGYRSYGFGAAAQVYFGKSLNELSLSEIATLAGMPKAPSTMNPIYSLERATKRRNVVLMRMLDEKYITQEQFDEARNEPIIARYHSAEIEVSAPYVAELARAWAVKEYGEEKAYTSGLNIYMTVDSKLQDAANKAAVNNLMAYDERHGYRGAEKVLWKEGEAAWDAEQIEKHLKGQPTYGDLYPAVVTKVEGKTAQVVVKNNDAQTIPWTGINWARKFLTDNRQGSTPKSAQEVLAAGEQIWVRELTTTDEDGNTQSSWKLSQVPSANT,not soluble
14,MASSTVPVSAAGSANETPEIPDNVGDWLRGVYRFATDRNDFRRNLILNLGLFAAGVWLARNLSDIDLMAPQPGV,not soluble
15,MGSDKIHHHHHHMNAQIKIINTANGYMALCQDTPEDITPAWFSVDFWREKSAVVGSSKGRYTTWFVAFEHSHWVLRHYWRGGMMEKFSKDAYFYTGLENTRAMGELRLLDALYREQFAVPKPIAANIVRDGLFYRADIIIERVDGAEDLVAKLTKGTMTQAQWHALGATIAQFHRRGVYHADLNAKNILWQPQQTDSAQERFYLIDFDRGELKTPNAKWQKANLDRLLRSFNKEQGKQPTLAFTPANWAALLEGYHAVVPKV,not soluble
16,FLPMSREEMDQLGWDACDFILVCGDAYIDHPSFVSGIIGRVLEAQGFRVGIIAQPDWTNVESFRVLGKPTIAWGVTAGNMDSMINRYTADRKIRSDDAYSPNNEPNKRPDRAATVYCQRCREAFPDVPVLLGGIEGSLRRIAHYDYWSDKVRRSILMDSKADLLMYGNGERAIIDVMHRLAKGEKIHEITDVRGTAFIINKHNKASKAQFIEIASNDVDTVGRVDPIINPYVMTEDIDGCEVEKEKGNSLAQYQNFQKEIVSKPVVREGDQLDKDTQIIQLKPVPSKAIKHKLPPRELAVIRLPSFEEVADDHVLYAHANRILHLETNPGNARALVQRHGERDVWINPPPIPLTTEEMDYVFDLPYARLPHSAYGDARFPAFDMIKFS,not soluble
17,MSLSKNPTSGFRLTHVGLRVTDIDRSVTFYTSVFGMKELGRMGLDTTTVVFLGYPDAADPQTQLFAREGVLELKSQRGMAESNDYPDFRFVKLAIGVPDMATAMEHIRSHNVKILKEAGVAQGSEVVSTFLGCDMPDKGFDRPLWEAVVAVPFVEDPDGYLIEIIPYEGHHHHHH,soluble
18,FDGIFHTVKLLEPIQQSNADPAASFALFQQKFPNLKRVANSTLNTFDVYNLLSGWKSSLTAYLNQVLALQQRIKAADQIFPNQKETLPKDENPNIFEVLGAYGGKGFFPTLGSNGLHLPPQLFQFFRDFQLSSFTIKDFEVALVSEPDIVQHDKVRYAFQVQ,not soluble
19,MIKKVLIANRGEIAVRIIRACKEMDIETVAIYSEADKESLHVQIADEAYCVGPTISKESYLNLTNIISVAKLTGCDAIHPGYGFLAENADFAELCRECNLIFIGPSPEAISKMGTKDVARDTMKEAGVPIVPGSQGIIKNTEEAIELANQIGYPVIIKATAGGGGKGIRVARHEEELVKGIQITQQEASTAFGNPGVYLEKYVEDFRHVEIQIMADTHGNAIHLGERDCTIQRRLQKLLEESPSPALDENVRKQMGEAAVKAAVAVDYTGAGTVEFIYEYKTKSFYFMEMNTRIQVEHPVTEMVTGVDLIKEQILVASGEKLSLQQEEVQFNGWAIECRINAENPAKKFMPSPGKVEMYLPPGGFGIRVDSAVYPGYSIPPFYDSMVAKLIVHGKTREEAIAKMKRALSEFVVEGVHTTIPFHLQLLDHPDFVKGEFNTKFLEEHELVTQ,not soluble
20,MRSFIISSALLVILVQCGYPVAENSYPTTPSYPTPPPSYPTPKKYPVAPTYPSPPAYAQKPSYSAPPPPAPSVYSSSSFSDNEVASDSEYTTASPNSEYRKRAKARTAHNRKFQRRALTPIRRFQQKKQ,not soluble
21,MGSDKIHHHHHHMQEERSEKKIGPFKFQSNFEWKEFPQEEFEWFVKEVEKRFGLNLSSYKPQRVKRRTELLLRKYNVGYREYLNMLIKDKKYLDEFMDKMTINVTEFFRNPEKWWELRDEIIPLIAKNSLRMKFWSAGCSSGEEPYSLAILVHELNLSYKTRILATDIDIGVLRRAQEGIYEERAFVSTPKEYLEKYFEKLPDGRYRIKDSVKKIVEFKRHDLLKDPFEKNFDLIVCRNVVIYFEPEAKNELYRKFAESLKPGGFLFVGNTERIFNYKELGFEIYKPFIYRKVK,not soluble
22,MTEQVLFSVSENGVATITLNRPKALNSLSYDMLQPIGQKLKEWEHDERIALIVLKGAGTKGFCAGGDIKTLYEARSNEVALQHAERFFEEEYEIDTYIYQYTKPIIACLDGIVMGGGVGLTNGAKYRIVTERTKWAMPEMNIGFFPDVGAAYFLNKAPGYTGRFVALTASILKASDVLFINAADYFMTSDSLPEFLTELESVNWHKEDDVHTNLKEVIRTFATAPNLESELAPSLEVINSHFAFDTIEEIIHSLEKDESSFALKTKEILLSKSPISLKVTLKQFIDGQDKSVEECFATDLILAKNFMRHEDFFEGVRSVVVDKDQNPNYKYKQLSDVSEEDVNRFFNLLNA,not soluble
